Source: a protein production outcome set (Wang et al. 2014)

Experiment: label from the status in PepcDB records

Sequence | protein production
MKHIHSYYSPNNLYNKIIEGLNNLGKDLSSVTPDDLQPVDEFHIRGDIATKELIELGNFTPDMHILDVGCGVGGSTRRLSHETGCHVTGIDLSDEYIDAAERLTQLLNMQARVKFNVGSALELPYADNTFDGAWSIQMNMNVEDKLGWLKEMYRVLKPGARAVLYEVCGHEEKTIYFPVPWAQDSSMSFLIPKEAFRDLIASTGFKIEVWNDKSDLAQKAFARMREPTGESTLPELGLHMLIGNDIKTKAYNMRRNLDDERISLIEILAIKPS | failed
MKHLPTTLLLSTLAITLSAQAHNLVPAPKQTQSVLIKNATVHTVIQGVLTNTDVLIENGKISALGPQLSTNTTASTQVVDASGKHLYPGLIALDTSLGLVEIEMVRPTVDNAEVGDVNPQISAASAYNPDSELLPTIRYNGITHAQIVPSGDGLAGQSVVVDLDAWTIEDALQPNEGQFHVYWPQIKRMPEDEKEKAKAIEKNQQAIDKLITAFEDGYRYFLSQNAQDTDNWPNLRWQAMLPLYQGKATLFAHADSVSQIEQVIALTKKYQFKLVIVGGYDAWRLASSLREVNASVIYPHTLSLPKRKDEPVDLPFKIPSLLANAGIPYALGFSSDWNSRNLPYAAGYSAAYGVTPEQALKSVTLDAAKLLGIADLGAIAVGYQGSVVLSDGDILDPMSSKIDAIWIEGRQIDLNNRHQQLYQKYLKR | failed
MKHLTVYFLLALQGVLFSFSLSAATPQNAIAYHDGNVRFSVLTDGVIRMEWSPSGSFTDDPSFVAIHRNLPVPKYTVQNKNATVVISTARMKLKYKKGQGPFTKDNLTITSAKGMFPFQWTPGTIQKGNLKGTDRTLDGFEGDHNIYSHQDMKLEDGLLSTDGWTLIDDSKNFLFDNSEWAWVKEREHKDGQDWYFMAYGHDYKAALKDFTVFAGKVPLPPRYAFGYWWSRYWSYSDKEMRQLVDNFHTYNIPLDVLVVDMDWHYTDPGFGGWTGWTWNRRLFPDPAKFLGYLKSNDLKITLNLHPADGVAPYEEKYPEMAQWMGVDTAKQERIPWVVSDKRFINGMFNKVLRPMEKQGVDFWWLDWQQWMYDKKVDSLSNTWWINYVFFSDMERNRDTRPMLYHRWGGLGNHRYQIGFSGDAVISWKSLEFQPYFTNCASNVLYGYWSHDIGGHMFKGGDKEILDPELFTRWMQYGALTPVMRTHSTKNSVLNKELWNFKGDYFEALRNSILFRYQLAPYIYTMARETYDNGISICRPMYYDYPEAKEAYDFKSEYMFGDQILVAPITTPMQNGLSTVKVWLPEGNDWFEWTTGTLLKGGQIIERSFTLTEYPVYVKAGSVLPLYNRVKNLNSNSEEIIVNIFPGENGSFTFYEDNGNDKYYANEYARTRMYTERKENHLTVTVGPRQGKYRNMPTDRQFKIKVLGSAIPETITINGNRAEYEYIGDELALLITIPQTACDQEKTIEIQYSTSIPELNDGIVSQFKRFSKAITALKYRDAGIVLTPTMGATEATSIALTYSPERFNELIETFKRNYSQMPEMLKEQKLNEANSQWFMKAIGWKK | failed
MKHTIGILGGMGPAATADMLEKFVELRHASCDQQHIPLIVSSIPDIPDRTACLLSGGPSPYRYLERYLHMLEDAGAECIVIPCNTAHYWFDDLQNVAKARMISILDATLGDIPPSARHVGLLATNATLATGLYQKKALARGLTLIQPEDAGQALVMQAIYTLKRGDKTAAQALLLPQIDSLIARGAQAIIMGCTEIPLIVAGHERAIACPMIDSTASLVRAAIRWYESWPDTRASLTGEQRLTA | not failed
MKHVDTEIPTEEQIHEAEKFGFHGQVQAAKIRFDRYFPGVLASITVAAAATFLSDHYGAPTMLFALLIGMAFRFLSEDESRALVGIQFASTTVLRIGVALLGMRITLGQIQSLGVKPVVMVFFSVLLTILFGLALSKMMGRGKRFGVLTGGSVGICGASAALAIAAVLPQDEYSERNTIFTVISITALSTLAMIAYPVVAQWFGLDHQAAGIFLGGTIHDVAQVVGAGYSVSEQTGDTATVIKLLRVSMLVPVVFILSLIFHKRNQKDGNAPRRTLLPPFIIFFVLFVGINSLGVVPKPATQFINDVSRWCLVTAIGALGMKTSLKSLFEVGWKPVSIMIAETVFLAVLVLGSVVWMS | failed
MKIAALYDIHGNYPALKEVLKQVKKLSPDLVVLGGDLIAGPMPLETLSLLKHVSTTFKTVGIMGNNDQDIVDIYAKKRVGLSRKATEQLTWIANQLSYKQVSFLRNLLPSISIGNYFFCHAVKNDNTTVFSPQQNKAYIETLFKGVQESYIICGHTHIQFELSLPNKKIINAGSIGMPFSNQFGAQWLWLDDNRIEYKRTIFNQQAAIQLISQTEYPFKNEFIANNLRSTISLSQGYSILNTLIRAQNAQHDLSLEHHHHHH | not failed
MKIADGVYVHFIPTQKYKTNRIVFRMTGSLNKQTIAKRALVSQMLATANQTYPTVQSFKERLASLYGTQLSTKVSTKGLTHSVDIELTYLKDFFIPMNTSLFWEVLGFLMDCLYNPLSIVAQYQNKVFDIEKQNLMTYLDVDTENNYYYSEVQGRELYFVNEALKVPKYGRVELVEAETSFTAYQEFQSMLTKDRIDIFMVGEFDDYQVLRGLHRFPLEGRQVDLQFSYNQSYSKVVKEKIETRQTSQSILQLGYQFPCQYGDKDYFALIVFNGMLGEFAHSALFTKIREKEGLAYSIGSQFDAFTGLLEIYAGIEKSNRNQAMRGIIRELNHIKLGRFSSSLFNQTKKIIRMNALLSEDHALTLVEQHFNKVIFGDKKISLEDWLDKIEKVTKKDVCRIARQVKLQSLFFLEGVS | failed
MKIAVMGYGTIGSGVVEVLEINKEKIAKRAGEPIEVKYVLDLREFPGTPIENKIVHDYKVIAEDPEIGIVVETMGGVEPAFTFVKAMLEAGKQVATSNKNLVAAKGAELIKVARDHGVNFQFEASVGGGIPIIRPLNKCLTADEIEEITGILNGTTNYMLTKMTEEGADFDEVLKDAQDKGYAEKDPTADIEGYDPCRKIAILTSLVAGQQVDFEDIHCEGITKITPEDIKYAKAMHRAIKLLASSRKVGDSYTCLVAPYMIDDTHPLSGVNGVFNGVFLRGNVLGDAMFYGSGAGKLPTASAVVADVVDMTKHQNTNIYIDWKPEKLTLVSYDDSVNSFFVRTDSPKSEVEAVFGHVDYIEDVVDGEYAFTTGDMTEKDFADKASKINVINRIRL | failed
MKICHRYIAWQVLTGMVIATAILLPLFSFFDLLDQLDDVGKGTYTTWDAFLYTVMLMPRRFIQIAPFIALLGTVGALGALAVNLELVAMRVAGLSPLMIGLAPVGIGGLLIASTIALEYFVAPQFQQQATILRAVALEQGAELGKGLGIWTRNERNILRIGEMLHKGRATDIEVIHFDGEGSMTAHVHAWYADIFDESLWKLHDVTIRTFSPDRITSRKAHILQWHSFLGPDDIATLTKSPESLTPIELVKHAEFLRATGQKADAYVMALWRKVGGAIMTIAMILVAIPFIFGSVREGLGGKLILAALMGISIYLFDQIIANIGLVFQLNPIVVSVVPGMVLIAVAAHWLLRRTF | failed
MKIDGETRSARKDREIIQAATAAFISKGYDGTSMEEIATKAGASKQTVYKHFTDKETLFGEVVLSTASQVNDIIESVTTLLSEAIFMEGGLQQLARRLIAVLMDEELLKLRRLIIANADRMPQLGRAWYEKGFERMLASTASCFQKLTNRGLIQTGDPYLAASHLFGMLLWIPMNEAMFTGSNRRSKAELERHADASVEAFLAVYGVQPK | not failed
MKIEKQVNDLRIIELEKELENNPFIPILYWELGLNYLISVGEEKAEEIWSLGLLQCFTSFDEGLLSLVGFIEQHIELNKNDKQTVLILWQQIIKIVPNYLAGHLNLLVVACELKVFSAEKLAYLGTVALINSIDSGCISQQEEELLLRATLSILEFPTALSLDFLRSSIPLLVNLPWCDAVMAFANSMVYDKQLFSYGVEIAEICLQYSPNNLFILNDLIRFYGLRKDQDALLRTARNLLNIFRQQDFEPDFGFYLSSRLLSAFMTGNDWEQVQSIASIFKDYFILLQNEKSVVLNNFLRDRFWGLGFSLLYLFDEPESNRRCLNFNASIFQQNLTENQNKTICQEENLPKKKQVSLKRIGYIAHTLRQHSVGWLCRWLFKYHDREKFEIFVYLIGQPEDELTENWIYPNVSKYYHFGRDKNEIIKQIKQDQIQILVDLDVLTHNITAQVLAHKPAPVQVSWLGSDASGLPAIDYFIVDPYVVPDDAEGYYREKLWRLPQTYLAVDGFEMGTPTLSREQLGIKPNTVIYLSVQNKIKSNPNILKLQLQILQSVPDSVFLIKGGGDNELIRAMVEQLAKEMGLDLHRIRFLPKDGDEMTHRANLSIADVVLDTYPYNGATTTLETLWMEVPLVTRVGKQFASRNSYTFLTQLNIREGLAWNDQEYVYWGTRFGLEKSLREKVKNELNLGKYKSKLWRAKDFTQELELAYEGMWNGDLD | failed
MKIFGTDGVRGKAGVKLTPMFVMRLGIAAGLYFKKHSQTNKILIGKDTRKSGYMVENALVSALTSIGYNVIQIGPMPTPAIAFLTEDMRCDAGIMISASHNPFEDNGIKFFNSYGYKLKEEEEKAIEEIFHDEELLHSSYKVGESVGSAKRIDDVIGRYIAHLKHSFPKHLNLQSLRIVLDTANGAAYKVAPVVFSELGADVLVINDEPNGCNINDQCGALHPNQLSQEVKKYRADLGFAFDGDADRLVVVDNLGNIVHGDKLLGVLGVYQKSKNALSSQAVVATNMSNLALKEYLKSQDLELKHCAIGDKFVSECMQLNKANFGGEQSGHIIFSDYAKTGDGLVCALQVSALVLESKQVSSVALNPFELYPQSLVNLNVQKKPPLESLKGYSALLKELDKLEIRHLIRYSGTENKLRILLEAKDEKLLESKMQELKEFFEGHLC | failed
MKIFRNPPLVMSGLTLGLFALGNLLKLYHPSLRHLLSIIALLLYLFLILSILKNLSQALEQIKHPLIASIFPTFFMSGMLLAGYIQTFPFLEDWVTLISLTIWWLAFLGNAGLIAYFTIKFVIPFHWEHVFPSWSVLYVGIAVATLTAPISGQYILGQIIFWTCLLLTLLILPLMTIKAYCIGLPETAKPNICTFCAPLSLLLAGYLKTFPPEQSPNTNFVWLLLLASQLLYFFVVLQLPVLLKREFNPGFSAFTFPFAISATALRSAGSYLHLQLPLFQLLVKLEELLASILVLFILYSYLRFLSKQEDLPSN | failed
MKIFRSIDEIREPLPSPVVTIGNFDGVHLGHREIFRRVKREAARLDGVSMVITFTPHPLKVLGLRKELRLINTYAEKELLIEASGIDCLLTIPFTAEFAAIGAERFVGEILVGRIGVKKLVIGYDYAFGRNREGDVAMLRRMGEEHGFEVEVLEQIASGETVYSSSAVRRMIAAGNVREVVSLIGRHYSVGGTVVHGRRRGKDLGFPTANLRTEKELIPAAGVYAVKVRVDDTIRDGACNIGNNPTFGNEEVTVEVHILDFDGDLYGKEIRVYFVDRVREELRYPDLNALKEGISRDVARCRELLAGVSIIEYRDYLGGDAA | failed
MKIGIIGAGNIGGTLARKFVAAGHSVKLAGSKSPDSIRELAENIGAEPVAAVEAVKDVEVIVLSIPFAKIPEVAGLFSTVPAEVVVIDTSNYYPQLGTRIPEVDDGELESVWAREQLGRPIIKAFNAIIAKTLADGGKPAGTDNRIAIPVAGDSLAGKAIAQQLLDDAGFDALDAGTIADSWRQQPGMPAYCTELPLAALHSALNVAVKGDAPHLRDALMAEFFGGDIPPSHETIVARNRAVSA | failed
MKIGRYEVCGLLGRGGMGVVYKVRQPVTGRVAALKLLKPADILVDLAGMDALREGFLHEATVMASLDHPHVAAVWDVDEAGGLPFFVMEYYCLNLGLLMGESYRVEAPTRRLPLERAVRYARQTLEALRRMHHEGIVHRDVKPFNIMVTGDDAVKLIDFGLSRLRGETRLSPRGVKVGSPYYAPPEQESAPDAVDARADLYPVGVMLFRMLTGVLPTDEERMKDGRIPRASALSDELDEGWDAFFDTAMAADPARRFPDAASMLAALARCEAAWRKQVEATCRLIPEQAAGPGDASDMRHDAGHESVQAGQTDETGQAGQAGQAGQAVTCEGAPAASGGVRCRPVKVGVHEARATFALDALWRPASAARQGLEARDDGTVSHAATGLQWETGGCDFPLTRDEAEAYVEARNALRFAGHDDWRLPTVDELLTLVDAGVTVGDPCVASVFAPLPDPLWTSDRKSYMASWFVSAAMGFVGWQDDTCRFGVRLVRGGSARCRE | failed
